T1: AP2-HC D1 (Plasmodium falciparum, UniProt Q8IKR9 1316-1374)
T1 sequence: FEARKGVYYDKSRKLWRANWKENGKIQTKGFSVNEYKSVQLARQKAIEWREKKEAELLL

B1: CACACA_negctrl_site1085 (dsDNA)
DNA 1: TATATTCAAAAAAATTCATTTCTGATTTTTTTTTTT
DNA 2: AAAAAAAAAAATCAGAAATGAATTTTTTTGAATATA
B2: CACACA_negctrl_site1028 (dsDNA)
DNA 1: ATTTTTTTATGTACACAAAAAAAAAAAAAAATTTAA
DNA 2: TTAAATTTTTTTTTTTTTTTGTGTACATAAAAAAAT
B3: CACACA_negctrl_site1459 (dsDNA)
DNA 1: AAAAATATATATATATTTCTTCTTTGTTAAAATGTA
DNA 2: TACATTTTAACAAAGAAGAAATATATATATATTTTT
B4: CACACA_negctrl_site580 (dsDNA)
DNA 1: TATTAAAAAAAAAAATAAAAAAATAAAATAAAATAA
DNA 2: TTATTTTATTTTATTTTTTTATTTTTTTTTTTAATA
B5: CACACA_negctrl_site809 (dsDNA)
DNA 1: AAATAATATTTTTTTTTTTTTTTTTTTTTATGTTAT
DNA 2: ATAACATAAAAAAAAAAAAAAAAAAAAATATTATTT
B6: CACACA_negctrl_site217 (dsDNA)
DNA 1: TAATTTCATCATATTTGTTCCTTCTCAAAATTTTTT
DNA 2: AAAAAATTTTGAGAAGGAACAAATATGATGAAATTA
B7: CACACA_negctrl_site1204 (dsDNA)
DNA 1: ATTTTTTTTTTTTTTTTTCATTTTTTTTTTTTTTTT
DNA 2: AAAAAAAAAAAAAAAATGAAAAAAAAAAAAAAAAAT
B8: CACACA_negctrl_site1687 (dsDNA)
DNA 1: TATTGATAATTTTATATATACATACATAAATAAATA
DNA 2: TATTTATTTATGTATGTATATATAAAATTATCAATA
B9: CACACA_negctrl_site1399 (dsDNA)
DNA 1: TATTTTAATTTTTTTTTGTTTTTTCTAATACATGTA
DNA 2: TACATGTATTAGAAAAAACAAAAAAAAATTAAAATA
B10: CACACA_negctrl_site1635 (dsDNA)
DNA 1: TTTTGATATAAATATTAGATTAATAAATAAAAAAAT
DNA 2: ATTTTTTTATTTATTAATCTAATATTTATATCAAAA
B11: CACACA_negctrl_site347 (dsDNA)
DNA 1: TTATATATATTTAAAAAAATAACATAAATAAATAAA
DNA 2: TTTATTTATTTATGTTATTTTTTTAAATATATATAA
B12: CACACA_negctrl_site1022 (dsDNA)
DNA 1: ATAAATTGTTCTTTTTGTGTAAACAGAATATTAAAA
DNA 2: TTTTAATATTCTGTTTACACAAAAAGAACAATTTAT
B13: CACACA_negctrl_site828 (dsDNA)
DNA 1: ATATATATATATGTTTATTTATTTGAACGATTGTGG
DNA 2: CCACAATCGTTCAAATAAATAAACATATATATATAT
B14: CACACA_negctrl_site869 (dsDNA)
DNA 1: TTCTTACACAAAAAAATGAAATCAATCAAAAAAAAA
DNA 2: TTTTTTTTTGATTGATTTCATTTTTTTGTGTAAGAA
B15: CACACA_negctrl_site1371 (dsDNA)
DNA 1: ATAATTAGTTCAATTTTTTTTTTTTTTTTTTTTTTT
DNA 2: AAAAAAAAAAAAAAAAAAAAAAATTGAACTAATTAT
B16: CACACA_negctrl_site1802 (dsDNA)
DNA 1: TTATAATAAATATTTATTATATATAATATATATTAC
DNA 2: GTAATATATATTATATATAATAAATATTTATTATAA
B17: CACACA_negctrl_site1471 (dsDNA)
DNA 1: TGGATTTTTTGATTTTTGTTTTTCTTCTTTCCCCCC
DNA 2: GGGGGGAAAGAAGAAAAACAAAAATCAAAAAATCCA
B18: CACACA_negctrl_site1828 (dsDNA)
DNA 1: ATCTCAAATATAATAAATTATTAGGTATATATATAT
DNA 2: ATATATATATACCTAATAATTTATTATATTTGAGAT
B19: CACACA_negctrl_site39 (dsDNA)
DNA 1: AATATATCAAAAATTGGATAGTTTCTTATAAAAAAT
DNA 2: ATTTTTTATAAGAAACTATCCAATTTTTGATATATT
B20: CACACA_negctrl_site76 (dsDNA)
DNA 1: TAAATGTGAAATTTTATATTTTATATAATATACAAT
DNA 2: ATTGTATATTATATAAAATATAAAATTTCACATTTA
B21: CACACA_negctrl_site1411 (dsDNA)
DNA 1: AATTAAAGGAATTACAACTTTGCAAGCGCAACATAA
DNA 2: TTATGTTGCGCTTGCAAAGTTGTAATTCCTTTAATT
B22: CACACA_negctrl_site1773 (dsDNA)
DNA 1: TGGTTATTTATCTTTATTATAAATATTTACAAATAA
DNA 2: TTATTTGTAAATATTTATAATAAAGATAAATAACCA
B23: CACACA_negctrl_site1109 (dsDNA)
DNA 1: TATATATCTGTGAAAATACTTAAATTGTTATAAAAA
DNA 2: TTTTTATAACAATTTAAGTATTTTCACAGATATATA
B24: CACACA_negctrl_site437 (dsDNA)
DNA 1: ATTATATTAATATATATATATATATATATAATAATA
DNA 2: TATTATTATATATATATATATATATATTAATATAAT
B25: CACACA_negctrl_site401 (dsDNA)
DNA 1: TGTTAATATATCATTATGTTATAGGTTCAGCTGGGA
DNA 2: TCCCAGCTGAACCTATAACATAATGATATATTAACA
B26: CACACA_negctrl_site1488 (dsDNA)
DNA 1: AATTCTTTTTATATATTAAATATTATTAATAAGTCA
DNA 2: TGACTTATTAATAATATTTAATATATAAAAAGAATT
B27: CACACA_negctrl_site147 (dsDNA)
DNA 1: GATTACCTTTTTTTTTTTTTTTTTTTTTTTTTTTTC
DNA 2: GAAAAAAAAAAAAAAAAAAAAAAAAAAAAGGTAATC
B28: CACACA_negctrl_site386 (dsDNA)
DNA 1: TCTTACAAGGAACTAATAAAATTGTAGTTTGTATTT
DNA 2: AAATACAAACTACAATTTTATTAGTTCCTTGTAAGA
B29: CACACA_negctrl_site966 (dsDNA)
DNA 1: TATTTGTTTGAATTTTTTTTTTTTTTTTTTTATGTG
DNA 2: CACATAAAAAAAAAAAAAAAAAAATTCAAACAAATA
B30: CACACA_negctrl_site566 (dsDNA)
DNA 1: TATTTTTATACAATTTAACACGGGTTATAAAATGTA
DNA 2: TACATTTTATAACCCGTGTTAAATTGTATAAAAATA
B31: CACACA_negctrl_site398 (dsDNA)
DNA 1: TATTTATTTATTTATTTATTTATTTATTTATATTTA
DNA 2: TAAATATAAATAAATAAATAAATAAATAAATAAATA
B32: CACACA_negctrl_site788 (dsDNA)
DNA 1: GTATATATCTAAAAATATATATATATATATATATAT
DNA 2: ATATATATATATATATATATATTTTTAGATATATAC
B33: CACACA_negctrl_site368 (dsDNA)
DNA 1: TTTTTCATTTCTGCATTTATTTATAAATAAATATTT
DNA 2: AAATATTTATTTATAAATAAATGCAGAAATGAAAAA
B34: CACACA_negctrl_site1766 (dsDNA)
DNA 1: ACACATATATATATATATATATATATATATATATAT
DNA 2: ATATATATATATATATATATATATATATATATGTGT
B35: CACACA_negctrl_site313 (dsDNA)
DNA 1: ATAAACAAACATAAATCTGATTTTAATTTTTTTAAG
DNA 2: CTTAAAAAAATTAAAATCAGATTTATGTTTGTTTAT
B36: CACACA_negctrl_site481 (dsDNA)
DNA 1: TGACTTTTTTTTTTTTTTTTTTTTTTTTATCTTTTT
DNA 2: AAAAAGATAAAAAAAAAAAAAAAAAAAAAAAAGTCA
B37: CACACA_negctrl_site279 (dsDNA)
DNA 1: TGTTTTTGTGATCATATGAAAAAATTACCTACAAGG
DNA 2: CCTTGTAGGTAATTTTTTCATATGATCACAAAAACA
B38: CACACA_negctrl_site485 (dsDNA)
DNA 1: AAAGTGGCCATATATTTTTTTTTTTTTTTCCTTATT
DNA 2: AATAAGGAAAAAAAAAAAAAAATATATGGCCACTTT
B39: CACACA_negctrl_site629 (dsDNA)
DNA 1: TGCTTATATCTTATAATATTTATACATCATAATAAG
DNA 2: CTTATTATGATGTATAAATATTATAAGATATAAGCA
B40: CACACA_negctrl_site577 (dsDNA)
DNA 1: TCATATTATAAATAAATAAATAAATATATATATATA
DNA 2: TATATATATATATTTATTTATTTATTTATAATATGA
B41: CACACA_negctrl_site929 (dsDNA)
DNA 1: ACAGATATACATAAAAAAAAAATAATTTTACATATA
DNA 2: TATATGTAAAATTATTTTTTTTTTATGTATATCTGT
B42: CACACA_negctrl_site1132 (dsDNA)
DNA 1: ATGTAATCATTTTCGACTTTTTTTTTTTTTTTTTTT
DNA 2: AAAAAAAAAAAAAAAAAAAGTCGAAAATGATTACAT
B43: CACACA_negctrl_site1094 (dsDNA)
DNA 1: TTTTATTGTTTTTTTTTTTTTTCTTTTTTTTTTTTT
DNA 2: AAAAAAAAAAAAAGAAAAAAAAAAAAAACAATAAAA
B44: CACACA_negctrl_site1260 (dsDNA)
DNA 1: TAAATCATTTCATGGCATTTACACAAAATTTTTTAA
DNA 2: TTAAAAAATTTTGTGTAAATGCCATGAAATGATTTA

Target: T1, AP2-HC D1
Experiment: gcPBM; about 25 ug protein; PBS, 1% milk, 0.2 mg/ml BSA, salmon testes DNA, 0.03% Triton X-100
Conditions: tags: N-terminal GST (pGEX-4T-1), kept; label: surface-attached array probe

Binder	binding signal
B1	9.44 ln median PBM intensity, better of two orientations
B2	9.48 ln median PBM intensity, better of two orientations
B3	9.42 ln median PBM intensity, better of two orientations
B4	9.47 ln median PBM intensity, better of two orientations
B5	9.46 ln median PBM intensity, better of two orientations
B6	9.48 ln median PBM intensity, better of two orientations
B7	9.43 ln median PBM intensity, better of two orientations
B8	9.44 ln median PBM intensity, better of two orientations
B9	9.45 ln median PBM intensity, better of two orientations
B10	9.46 ln median PBM intensity, better of two orientations
B11	9.47 ln median PBM intensity, better of two orientations
B12	9.48 ln median PBM intensity, better of two orientations
B13	9.44 ln median PBM intensity, better of two orientations
B14	9.37 ln median PBM intensity, better of two orientations
B15	9.38 ln median PBM intensity, better of two orientations
B16	9.39 ln median PBM intensity, better of two orientations
B17	9.4 ln median PBM intensity, better of two orientations
B18	9.46 ln median PBM intensity, better of two orientations
B19	9.45 ln median PBM intensity, better of two orientations
B20	9.39 ln median PBM intensity, better of two orientations
B21	9.47 ln median PBM intensity, better of two orientations
B22	9.44 ln median PBM intensity, better of two orientations

Binder	binding signal
B23	9.44 ln median PBM intensity, better of two orientations
B24	9.4 ln median PBM intensity, better of two orientations
B25	9.41 ln median PBM intensity, better of two orientations
B26	9.39 ln median PBM intensity, better of two orientations
B27	9.37 ln median PBM intensity, better of two orientations
B28	9.42 ln median PBM intensity, better of two orientations
B29	9.38 ln median PBM intensity, better of two orientations
B30	9.46 ln median PBM intensity, better of two orientations
B31	9.48 ln median PBM intensity, better of two orientations
B32	9.43 ln median PBM intensity, better of two orientations
B33	9.47 ln median PBM intensity, better of two orientations
B34	9.45 ln median PBM intensity, better of two orientations
B35	9.42 ln median PBM intensity, better of two orientations
B36	9.43 ln median PBM intensity, better of two orientations
B37	9.38 ln median PBM intensity, better of two orientations
B38	9.44 ln median PBM intensity, better of two orientations
B39	9.47 ln median PBM intensity, better of two orientations
B40	9.41 ln median PBM intensity, better of two orientations
B41	9.47 ln median PBM intensity, better of two orientations
B42	9.38 ln median PBM intensity, better of two orientations
B43	9.39 ln median PBM intensity, better of two orientations
B44	9.48 ln median PBM intensity, better of two orientations

Source: paper PMC11417369, “DNA sequence and chromatin differentiate sequence-specific transcription factor binding in the human malaria parasite Plasmodium falciparum”
